Measured values from patent US20230220115A1.
Where “and” joins values, the source holds several entries; their conditions need not be identical. Equal values may be shown once.

Tests used:
[1] = molecular target: SARS-CoV-2 spike, N439K variant (pseudovirus RVP-703) (SARS-CoV-2) (UniProt P0DTC2); assay: cell-based or functional assay
[2] = molecular target: SARS-CoV-2 spike, South African Δ3 B.1.351 variant (pseudovirus RVP-724) (SARS-CoV-2) (UniProt P0DTC2); assay: cell-based or functional assay

With “Imdevimab (biosimilar version) (antibody)” the EC50 (pM) Neutralization, N439K [1] was 2260 pM and 2220 pM, the potency in pseudovirus neutralization against REGN10933 [1] was 1000 fold and the EC50 (pM) Neutralization, South Africa B.1.351 [2] was 2.48 pM and 2.37 pM.
